The assay deals with recombinant murine IL-12 (R&D Systems) (murine) (UniProt P43431). In words: cell-based or functional assay.

Consider “C17.8 (rat anti-mouse IL-12/IL-23p40, IgG2a) (antibody)”, for which the in vitro neutralization of IL-12 (times (against the anti-p35 mAb)) was determined as 5.

(Values after patent US7807471.)
